Test results: doi:10.1101/2021.09.02.458805 (bioRxiv, 2021)

B1: Yth1 (natural protein, S. cerevisiae, UniProt Q06102 1-208, looked up)
chain: MSLIHPDTAKYPFKFEPFLRQEYSFSLDPDRPICEFYNSREGPKSCPRGPLCPKKHVLPIFQNKIVCRHWLRGLCKKNDQCEYLHEYNLRKMPECVFFSKNGYCTQSPDCQYLHIDPASKIPKCENYEMGFCPLGSSCPRRHIKKVFCQRYMTGFCPLGKDECDMEHPQFIIPDEGSKLRIKRDDEINTRKMDEEKERRLNAIINGEV
B2: Pfs2 with SII tag, as subunit of the purified polymerase module (natural protein, S. cerevisiae, UniProt P42841 1-465, looked up)
chain: MDGHNQNQYQNQNQIQQSQQPPLKKYVTQRRSVDVSSPYINLYYNRRHGLPNLVVEPETSYTIDIMPPNAYRGRDRVINLPSKFTHLSSNKVKHVIPAIQWTPEGRRLVVATYSGEFSLWNASSFTFETLMQAHDSAVTTMKYSHDSDWMISGDADGMIKIWQPNFSMVKEIDAAHTESIRDMAFSSNDSKFVTCSDDNILKIWNFSNGKQERVLSGHHWDVKSCDWHPEMGLIASASKDNLVKLWDPRSGNCISSILKFKHTVLKTRFQPTKGNLLMAISKDKSCRVFDIRYSMKELMCVRDETDYMTLEWHPINESMFTLACYDGSLKHFDLLQNLNEPILTIPYAHDKCITSLSYNPVGHIFATAAKDRTIRFWTRARPIDPNAYDDPTYNNKKINGWFFGINNDINAVREKSEFGAAPPPPATLEPHALPNMNGFINKKPRQEIPGIDSNIKSSTLPGLSI
B3: Cft2(S), residues 1-720 (domain or fragment, S. cerevisiae, UniProt Q12102 1-720, looked up)
chain: MTYKYNCCDDGSGTTVGSVVRFDNVTLLIDPGWNPSKVSYEQCIKYWEKVIPEIDVIILSQPTIECLGAHSLLYYNFTSHFISRIQVYATLPVINLGRVSTIDSYASAGVIGPYDTNKLDLEDIEISFDHIVPLKYSQLVDLRSRYDGLTLLAYNAGVCPGGSIWCISTYSEKLVYAKRWNHTRDNILNAASILDATGKPLSTLMRPSAIITTLDRFGSSQPFKKRSKIFKDTLKKGLSSDGSVIIPVDMSGKFLDLFTQVHELLFESTKINAHTQVPVLILSYARGRTLTYAKSMLEWLSPSLLKTWENRNNTSPFEIGSRIKIIAPNELSKYPGSKICFVSEVGALINEVIIKVGNSEKTTLILTKPSFECASSLDKILEIVEQDERNWKTFPEDGKSFLCDNYISIDTIKEEPLSKEETEAFKVQLKEKKRDRNKKILLVKRESKKLANGNAIIDDTNGERAMRNQDILVENVNGVPPIDHIMGGDEDDDEEEENDNLLNLLKDNSEKSAAKKNTEVPVDIIIQPSAASKHKMFPFNPAKIKKDDYGTVVDFTMFLPDDSDNVNQNSRKRPLKDGAKTTSPVNEEDNKNEEEDGYNMSDPISKRSKHRASRYSGFSGTGEAENFDNLDYLKIDKTLSKRTISTVNVQLKCSVVILNLQSLVDQRSASIIWPSLKSRKIVLSAPKQIQNEEITAKLIKKNIEVVNMPLNKIVEFSTTI

Key:
Cft2(S), residues 1-720 [1] = molecular target: B3; assay: cross-linking
Cft2(S), residues 1-720 [2] = molecular target: B3; assay: cryo-EM structure
Cft1 = molecular target: T1, Cft1 (S. cerevisiae, UniProt Q06632 1-1357); assay: cryo-EM structure
T1 sequence (looked up): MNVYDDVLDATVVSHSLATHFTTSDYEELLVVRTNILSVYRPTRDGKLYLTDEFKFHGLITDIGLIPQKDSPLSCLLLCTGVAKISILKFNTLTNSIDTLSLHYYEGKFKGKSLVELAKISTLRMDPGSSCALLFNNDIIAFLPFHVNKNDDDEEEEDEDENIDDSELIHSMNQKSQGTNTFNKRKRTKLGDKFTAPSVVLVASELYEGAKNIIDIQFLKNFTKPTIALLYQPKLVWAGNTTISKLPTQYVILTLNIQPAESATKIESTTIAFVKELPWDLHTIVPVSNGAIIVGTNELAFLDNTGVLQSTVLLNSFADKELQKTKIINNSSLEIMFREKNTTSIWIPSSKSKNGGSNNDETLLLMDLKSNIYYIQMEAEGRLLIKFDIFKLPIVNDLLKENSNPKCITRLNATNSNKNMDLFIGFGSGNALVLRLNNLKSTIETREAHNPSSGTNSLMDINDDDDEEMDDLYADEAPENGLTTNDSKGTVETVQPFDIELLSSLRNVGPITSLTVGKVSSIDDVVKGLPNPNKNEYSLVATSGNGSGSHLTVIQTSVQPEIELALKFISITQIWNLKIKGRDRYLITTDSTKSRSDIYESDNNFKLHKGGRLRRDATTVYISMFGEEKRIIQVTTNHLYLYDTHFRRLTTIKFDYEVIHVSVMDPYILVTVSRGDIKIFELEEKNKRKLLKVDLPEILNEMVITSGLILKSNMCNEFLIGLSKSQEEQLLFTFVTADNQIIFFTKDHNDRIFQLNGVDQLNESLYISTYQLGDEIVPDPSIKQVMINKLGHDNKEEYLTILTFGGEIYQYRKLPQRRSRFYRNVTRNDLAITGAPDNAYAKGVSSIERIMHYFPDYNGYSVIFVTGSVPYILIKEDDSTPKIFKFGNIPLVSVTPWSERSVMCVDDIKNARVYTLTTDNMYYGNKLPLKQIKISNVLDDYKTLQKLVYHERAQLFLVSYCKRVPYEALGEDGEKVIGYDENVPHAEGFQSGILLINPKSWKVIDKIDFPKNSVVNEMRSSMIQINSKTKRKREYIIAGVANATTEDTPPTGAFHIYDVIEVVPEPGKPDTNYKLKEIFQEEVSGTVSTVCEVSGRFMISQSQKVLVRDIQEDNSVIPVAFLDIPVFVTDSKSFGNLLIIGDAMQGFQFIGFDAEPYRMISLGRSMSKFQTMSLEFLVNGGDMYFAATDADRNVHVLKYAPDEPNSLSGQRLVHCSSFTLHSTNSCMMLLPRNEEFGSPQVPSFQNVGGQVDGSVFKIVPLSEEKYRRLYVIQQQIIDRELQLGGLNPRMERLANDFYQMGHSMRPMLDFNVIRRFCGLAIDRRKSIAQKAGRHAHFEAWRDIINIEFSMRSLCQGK

## B1
Cft2(S), residues 1-720 [1]
  binding result: binds

## B2
Cft2(S), residues 1-720 [2]
  binding result: binds

## B3
Cft1
  binding result: binds
